“Also recorded” adds a separate entry of the source.

Holding throughout (format): in vivo
In assay [1] the test system is Camelina. As to the kind of experiment: Growth phenotypes and seed recovery of transgenic Camelina. From the text:
(§1) Previously, reconstitution of a functional inorganic CCM in C3 plants to suppress photorespiration and enhance photosynthesis was proposed. In WO 2012/125737, it was hypothesized that expression of a minimum of three algal CCM proteins would be sufficient to elevate internal plastid CO2 concentrations high enough to suppress photorespiration. These three algal CCM genes included the Chlamydomonas plasma membrane-localized and ATP-dependent bicarbonate transporter, HLA3; the chloroplast envelope localized bicarbonate anion transporter, LCIA; and a chloroplast stromal-localized carbonic anhydrase (HCA-II) to accelerate conversion of bicarbonate into CO2. […] To test this hypothesis, we generated multiple independent transgenic Arabidopsis and Camelina plants expressing each CCM gene as a single gene construct, as well as a stacked 3-gene construct. The expression of each gene was controlled by the light-regulated Cab1 gene promoter.

Assay [2] concerns Camelina. As to the kind of experiment: CO2-dependent photosynthetic rates of transgenic Camelina. From the text: FIGS. 5A-5C. Growth phenotypes of WT and LCIA transgenic (T1) Arabidopsis plants four weeks after germination. (B) Four-week-old WT (left 4 plants) and independent transgenic Camelina (right 4 plants) expressing LCIA. (C) CO2-dependent photosynthetic rates of WT and LCIA transgenic Camelina.
We propose that the substantially greater carbon sink-strength of Camelina relative to Arabidopsis accounts for the enhanced growth phenotype observed in Camelina LCIA plants. In support of this hypothesis, we observed that Camelina LCIA transgenics had higher CO2-dependent rates of photosynthesis and lower CO2 compensation points (40 vs. 53 ppm CO2) than WT plants indicative of facilitated inorganic carbon uptake by LCIA (FIG. 5C).

The next assay concerns Arabidopsis. Kind of assay: Growth phenotypes of transgenic Arabidopsis.
Description: as §1
Finally, we also grew transgenics on ammonium with sucrose which would presumably provide additional ATP via respiration. We hypothesized that growth on nitrate or ammonium with sucrose would provide additional ATP that could potentially drive HLA3 activity.

B1: LCIA: chloroplast envelope localized bicarbonate anion transporter, expressed in transgenic plants (protein, listed as Chlamydomonas reinhardtii)
chain: MQTTMTRPCLAQPVLRSRVLRSPMRVVAASAPTAVTTVVTSNGNGNGHFQAATTPVPPTPAPVAVSAPVRAVSVLTPPQVYENAINVGAYKAGLTPLATFVQGIQAGAYIAFGAFLAISVGGNIPGVAAANPGLAKLLFALVFPVGLSMVTNCGAELFTGNTMMLTCALIEKKATWGQLLKNWSVSYFGNFVGSIAMVAAVVATGCLTTNTLPVQMATLKANLGFTEVLSRSILCNWLVCCAVWSASAATSLPGRILALWPCITAFVAIGLEHSVANMFVIPLGMMLGAEVTWSQFFFNNLIPVTLGNTIAGVLMMAIAYSISFGSLGKSAKPATA
As to B1, the “growth phenotype / viability relative to WT” value in the assay on Camelina [1] is recorded as “grew better than WT; also recorded: increased growth rates”. For the same molecule, in the assay with Camelina [2], the “CO2-dependent photosynthetic rates relative to WT” value is listed as “higher CO2-dependent photosynthetic rates”, the CO2 compensation point worked out at 40 ppm CO2 and the “CO2 compensation points relative to WT” value was “reduced CO2 compensation points”. The “higher photosynthetic rates than WT” value in the assay with Camelina [2] (ambient CO2 concentrations) was “up to 25%”. Besides, the “growth phenotype relative to WT” value in the assay on Arabidopsis is “substantially impaired in growth; also recorded: severely depressed growth phenotypes”.

The record behind these values is US11459578B2, “Carbon fixation systems in plants and algae” (NMC, INC., priority 2014, dated 2022).
